Data: publication PMC3136212

Molecular target: RPA (full-length heterotrimer RPA1/RPA2/RPA3) (human) (UniProt P27694+P15927+P35244)
Assay: FP
Set-up: unit not given here
Conditions: 18-carbon spacer (sp18) at 5' end; FP: 0.060 uM FAM-oligo, 10-1500 mM NaCl, room temperature; CD: Buffer A 25 mM Tris pH 7.5, 2 mM MgCl2, 6% glycerol, 1 mM DTT, 100 (or 10) mM …

RPA (full-length heterotrimer RPA1/RPA2/RPA3) (human), sequence (P27694 whole entry, chain 1 of 3): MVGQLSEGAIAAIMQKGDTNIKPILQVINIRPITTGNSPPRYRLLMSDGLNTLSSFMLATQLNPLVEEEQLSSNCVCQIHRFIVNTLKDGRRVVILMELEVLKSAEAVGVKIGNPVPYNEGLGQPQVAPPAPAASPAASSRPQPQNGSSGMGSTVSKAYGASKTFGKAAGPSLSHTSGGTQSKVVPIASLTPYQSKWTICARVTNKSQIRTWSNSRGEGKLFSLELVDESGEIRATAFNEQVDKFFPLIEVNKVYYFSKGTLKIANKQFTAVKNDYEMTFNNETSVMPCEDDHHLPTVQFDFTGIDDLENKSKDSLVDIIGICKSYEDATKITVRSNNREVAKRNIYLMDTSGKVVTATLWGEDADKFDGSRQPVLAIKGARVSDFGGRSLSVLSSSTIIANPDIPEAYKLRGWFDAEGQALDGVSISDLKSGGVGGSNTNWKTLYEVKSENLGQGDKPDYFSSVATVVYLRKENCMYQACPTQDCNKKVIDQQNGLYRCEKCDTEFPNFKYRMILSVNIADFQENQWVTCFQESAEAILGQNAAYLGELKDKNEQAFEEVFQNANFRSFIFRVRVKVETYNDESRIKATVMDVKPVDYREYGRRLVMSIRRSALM
RPA (full-length heterotrimer RPA1/RPA2/RPA3) (human), sequence (P15927 whole entry, chain 2 of 3): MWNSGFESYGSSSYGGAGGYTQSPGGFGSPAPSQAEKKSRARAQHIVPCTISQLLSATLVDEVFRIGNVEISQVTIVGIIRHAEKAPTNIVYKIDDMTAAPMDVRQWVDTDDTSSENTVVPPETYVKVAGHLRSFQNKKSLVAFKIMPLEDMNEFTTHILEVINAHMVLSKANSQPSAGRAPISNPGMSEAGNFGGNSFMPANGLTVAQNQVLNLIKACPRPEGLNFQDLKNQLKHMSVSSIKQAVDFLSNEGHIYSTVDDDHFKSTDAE
RPA (full-length heterotrimer RPA1/RPA2/RPA3) (human), sequence (P35244 whole entry, chain 3 of 3): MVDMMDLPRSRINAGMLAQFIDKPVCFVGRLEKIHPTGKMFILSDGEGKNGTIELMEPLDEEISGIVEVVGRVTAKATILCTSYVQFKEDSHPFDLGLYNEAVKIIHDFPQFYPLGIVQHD

AAAAAAAAAAAAAAAAAAAAAAA [polyA] and ATCCCCTTCCCAACCTCACCCAA [Anti (Comp)] are the same in Kd: 0.07 for the first, 0.07 for the second.

TAGGGGAAGGGTTGGAGTGGGTT [Gq23 (FP)] was tested, and the Kd was 0.05.
